Columns and labels:
Details in all cases: protein: commercial
MUC16 antigen (CA125) [1] = target: T1, MUC16 antigen (CA125) (UniProt Q8WXI7 1-14451); experiment: SPR; 310 K (37 C), pH 7.2; SPR, pH 7.2, 25 C (also 37 and 42 C); 1X PBS with 1 mM MgCl2 given as flow buffer for aptamer immobilization; surface blocked with 0.1% BSA
MUC16 antigen (CA125) [2] = target: T1, MUC16 antigen (CA125); experiment: SPR; 315 K (42 C), pH 7.2; SPR, pH 7.2, 25 C (also 37 and 42 C); 1X PBS with 1 mM MgCl2 given as flow buffer for aptamer immobilization; surface blocked with 0.1% BSA
MUC16 antigen (CA125) [3] = target: T1, MUC16 antigen (CA125); experiment: SPR; 25 C, pH 7.2; kon 2.55e4 M-1 s-1, koff 1.01e-3 s-1; SPR, pH 7.2, 25 C (also 37 and 42 C); 1X PBS with 1 mM MgCl2 given as flow buffer for aptamer immobilization; surface blocked with 0.1% BSA

Binder: CTCACTATAGGGAGACAAGAATAAACGCTCAA (ssDNA, 3'-C6 amine) [anti-MUC16 aptamer]
- Kd (MUC16 antigen (CA125) [1]): 101 nM
- Kd (MUC16 antigen (CA125) [2]): 1340 nM
- Kd (MUC16 antigen (CA125) [3]): 39 nM

From paper PMC11347734, “Ultrasensitive Quantification of MUC16 Antigen/Amine-Terminated Aptamer Interaction by Surface Plasmon Resonance: Kinetic and Thermodynamic Studies”
